In article PMC9696579 (Nature structural & molecular biology, 2022):

Molecular target: mouse PKA-Cα (Mus musculus, UniProt P05132)
Assay: Surface plasmon resonance
Details: SPR; mouse PKA-Cα; ATP and MgCl2 present

B1: SMO pCT WRR mutant: SMO pCT harboring the WRR mutation, GST-tagged for SPR (protein)
chain: KRIKKSKMIAKAFSKRRELLQNPGQELSFSMHTVSHDGPVAGLAFDLNEPSADVSSAAAQHVTKMVAAAGAILPQDVSVTPVATPVPPEEQAN
modifications: left off: GST, end not stated, kept
binding to PKA-Cα: no PKA-C binding was observed
